Drawing on patent US20220356470, this text covers activity (% survivors with deletion (17/20)) and activity (% survivors edited) for 1 substance.

The test system of data set [1] is Type I-C Cascade with Cas3-Cas8 tether (Pseudomonas aeruginosa). In words: cell_activity. The conditions noted are these: smaller deletions than untethered; PAM not stated.
Data set [2] concerns Type I-C Cascade-Cas3 D370A (helicase mutant) Cas3 D370A (Pseudomonas aeruginosa). In words: cell_activity. The note with it: smaller deletions; PAM not stated.

For “crRNA targeting 200 bp upstream of phzM ; site 200 bp upstream of phzM”, in data set [1], the activity (% survivors with deletion (17/20)) was 85. Also, the activity (% survivors edited) in data set [2] is 25.
